Experimental data as given in article doi:10.1101/636563.
Each block holds one substance with its values, some of them ahead of it.

Columns and labels:
KRas G12D (GDP-loaded) [1] = target: KRas G12D (GDP-loaded) (UniProt P01116); assay: ITC
KRas G12D (GDP-loaded) [2] = target: KRas G12D (GDP-loaded) (UniProt P01116); assay: thermal shift assay
KRas wild-type = KRas wild-type (UniProt P01116); assay: ITC
[3] = target: KRas G12D, site-specifically mono-biotinylated by sortase-mediated ligation (GDP-loaded) (UniProt P01116); assay: SPR

Kd (KRas G12D (GDP-loaded) [1]): 0.021 µM | stoichiometry N (KRas G12D (GDP-loaded) [1]): 0.625 | ΔTm (KRas G12D (GDP-loaded) [2]): 11.5 °C
Substance: KRpep-2d (peptide)

Kd (KRas wild-type): 0.006 µM | stoichiometry N (KRas wild-type): 0.554
Substance: Raf-RBD (from UniProt P04049 56-131) (domain or fragment)

Kd [3]: > 1 µM
Substance: SAH-SOS1A (from UniProt Q07889 929-944) (peptide)

Kd [3]: > 1 µM
Substance: cyclorasin 9A5 (peptide)
